Reference: paper PMC9205782, “Identifying amyloid-related diseases by mapping mutations in low-complexity protein domains to pathologies” (Nature Structural & Molecular Biology, 2022)

Legend:
[1] = target: the molecule itself; assay: X-ray fiber powder diffraction of aggregates; aggregated samples centrifuged, exchanged into water, dried between capillaries; cross-beta pattern
[2] = target: the molecule itself; assay: thioflavin T fluorescence on cooling (reversible aggregation, phase separation); same sample concentrations as the aggregation assay; held at 37 °C, cooled to 4 °C for 60 minutes, warmed back to 37 °C
[3] = target: the molecule itself; assay: Western blot of tissue extracts; extracts of human liver tissue (three ASH, one HCC) on a gel, blotted with anti-cytokeratin 8 (C51)
[4] = target: the molecule itself; assay: crystal structure; peptide microcrystals grown by hanging drop vapor diffusion; SGMGGIT: 0.1 M phosphate/citrate pH 4.2, 40% ethanol, 5% PEG 1000; SGMGCIT: 0.2 M sodium citrate, 0.1 M HEPES pH 7.5, 20% 2-propanol; GGYAGAS: 2.5 M NaCl, 100 mM sodium acetate pH 4.5, 0.2 M lithium sulfate; data at 100 K

B1: KRT8_(1–90) Y54H with N-terminal mCherry (domain or fragment, human, UniProt P05787 1-90, looked up)
chain: MSIRVTQKSYKVSTSGPRAFSSRSYTSGPGSRISSSSFSRVGSSNFRGGLGGGHGGASGMGGITAVTVNQSLLSPLVLEVDPNIQAVRTQ
notes: keratin-8 (KRT8), human, head domain, residues 1-90, variant Y54H; Variant found in people with cryptogenic liver disease; source: bacterial cultures, purified (Ni-NTA)
binding result [1]: binds

B2: KRT8_(1–90) G55A with N-terminal mCherry (domain or fragment, human, UniProt P05787 1-90, looked up)
chain: MSIRVTQKSYKVSTSGPRAFSSRSYTSGPGSRISSSSFSRVGSSNFRGGLGGGYAGASGMGGITAVTVNQSLLSPLVLEVDPNIQAVRTQ
notes: keratin-8 (KRT8), human, head domain, residues 1-90, variant G55A; Variant found in people with cryptogenic liver disease; source: bacterial cultures, purified (Ni-NTA)
binding result [1]: binds

B3: KRT8_(1–90) G62C with N-terminal mCherry (domain or fragment, human, UniProt P05787 1-90, looked up)
chain: MSIRVTQKSYKVSTSGPRAFSSRSYTSGPGSRISSSSFSRVGSSNFRGGLGGGYGGASGMGCITAVTVNQSLLSPLVLEVDPNIQAVRTQ
notes: keratin-8 (KRT8), human, head domain, residues 1-90, variant G62C; Variant found in people with cryptogenic liver disease; source: bacterial cultures, purified (Ni-NTA)
binding result [2]: binds

B4: FUS_(1–214), wild type, with N-terminal mCherry (domain or fragment, human, UniProt P35637 1-214, looked up)
chain: MASNDYTQQATQSYGAYPTQPGQGYSQQSSQPYGQQSYSGYSQSTDTSGYGQSSYSSYGQSQNTGYGTQSTPQGYGSTGGYGSSQSSQSSYGQQSSYPGYGQQPAPSSTSGSYGSSSQSSSYGQPQSGSYSQQPSYGGQQQSYGQQQSYNPPQGYGQQNQYNSSSGGGGGGGGGGNYGQDQSSMSSGGGSGGGYGNQDQSGGGGSGGYGQQDRG
notes: FUS, human, residues 1-214; also called wild-type FUS; source: bacterial cultures, purified (Ni-NTA)
binding result [2]: binds

B5: KRT8 in human liver tissue extracts (natural protein, human (endogenous in liver tissue), UniProt P05787 1-483, looked up)
chain: MSIRVTQKSYKVSTSGPRAFSSRSYTSGPGSRISSSSFSRVGSSNFRGGLGGGYGGASGMGGITAVTVNQSLLSPLVLEVDPNIQAVRTQEKEQIKTLNNKFASFIDKVRFLEQQNKMLETKWSLLQQQKTARSNMDNMFESYINNLRRQLETLGQEKLKLEAELGNMQGLVEDFKNKYEDEINKRTEMENEFVLIKKDVDEAYMNKVELESRLEGLTDEINFLRQLYEEEIRELQSQISDTSVVLSMDNSRSLDMDSIIAEVKAQYEDIANRSRAEAESMYQIKYEELQSLAGKHGDDLRRTKTEISEMNRNISRLQAEIEGLKGQRASLEAAIADAEQRGELAIKDANAKLSELEAALQRAKQDMARQLREYQELMNVKLALDIEIATYRKLLEGEESRLESGMQNMSIHTKTTSGYAGGLSSAYGGLTSPGLSYSLGSSFGSGAGSSSFSRTSSSRAVVVKKIETRDGKLVSESSDVLPK
notes: keratin-8 (KRT8), endogenous in human liver; monomer band at 52 KDa; also called keratin-8; cytokeratin 8; source: endogenous, extracts of human liver tissue (ASH or HCC)
stoichiometry N [3]: 2

B6: KRT8_(58–64) wild-type segment SGMGGIT (peptide)
peptide: SGMGGIT
notes: keratin-8 (KRT8), human, head domain segment, residues 58-64; Crystallised as an amyloid-like fibril of stacked identical strands (anti-parallel class-7 steric zipper) with PEG 1000 and ethanol; also called 58SGMGGIT64; source: synthetic peptide, bought: GenScript
binding result [4]: binds

B7: KRT8_(58–64) G62C segment SGMGCIT (peptide)
peptide: SGMGCIT
notes: G62C is found in people with cryptogenic liver disease; Crystallised as a class-2 parallel steric zipper with isopropanol; also called 58SGMGCIT64; KRT8-G62C segment; source: synthetic peptide, bought: GenScript
binding result [4]: binds

B8: KRT8_(52–58)-G55A segment GGYAGAS (peptide)
peptide: GGYAGAS
notes: G55A is found in people with cryptogenic liver disease; Crystallised as an anti-parallel class-6 steric zipper; also called 52GGYAGAS58; source: synthetic peptide, bought: GenScript
binding result [4]: binds

B9: KRT8_(1–90), head domain of keratin-8, wild type, with N-terminal mCherry (domain or fragment, human)
chain: SIRVTQKSYKVSTSGPRAFSSRSYTSGPGSRISSSSFSRVGSSNFRGGLGGGYGGASGMGGITAVTVNQSLLSPLVLEVDPNIQAVRTQ
notes: keratin-8 (KRT8), human, head domain, residues 1-90 as stated; No removal of mCherry or the His tag is described; also called WT KRT8_(1-90); wild-type KRT8; source: bacterial cultures, purified (Ni-NTA)
binding result [2]: binds
